Numbering of substitutions follows the chain as printed. Names may count otherwise. Values belong to the binder of their own block, whether it stands above or below them.
Legend:
[1] = target: β-arrestin-2-RLuc, P32121; experiment: BRET; conditions: chain shown with the change, HEK293A cells, read off a plot
[2] = target: β-arrestin-2-RLuc, P32121; experiment: BRET; conditions: chain shown with the change, HEK293A cells, read off a plot; remark: listed apart in the source
[125I]-Angiotensin II = competitive radioligand binding assay; conditions: chain shown with the change, value read from the curve at the x tick, read off a plot
[3] = target: β-arrestin-2-RLuc, P32121; experiment: BRET; conditions: chain shown with the change, HEK293A cells, read off a plot; remark: listed apart in the source
[4] = Ang II (1 μM), parent: est. 0.672
[5] = CTL (no stimulation), parent: est. 0.624
[6] = Hcy (100 μM), parent: est. 0.632
[7] = no stimulation (open bar, labelled WT in the key), parent: est. 0.624

β-arrestin-2-RLuc, P32121, sequence (P32121 whole entry): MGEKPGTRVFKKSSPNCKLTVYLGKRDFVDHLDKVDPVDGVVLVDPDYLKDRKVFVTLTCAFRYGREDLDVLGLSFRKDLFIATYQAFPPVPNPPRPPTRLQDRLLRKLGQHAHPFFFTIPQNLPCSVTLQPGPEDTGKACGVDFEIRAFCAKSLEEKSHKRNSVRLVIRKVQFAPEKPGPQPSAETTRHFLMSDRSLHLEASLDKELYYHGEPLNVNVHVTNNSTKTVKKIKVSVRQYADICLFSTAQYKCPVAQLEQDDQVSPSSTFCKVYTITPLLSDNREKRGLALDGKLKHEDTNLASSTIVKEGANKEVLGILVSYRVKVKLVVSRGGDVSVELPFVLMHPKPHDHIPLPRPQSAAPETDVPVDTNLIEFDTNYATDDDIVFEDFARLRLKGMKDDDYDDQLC

B2: AT1-YFP (wild type), P30556 R167A (protein)
chain: MILNSSTEDGIKRIQDDCPKAGRHNYIFVMIPTLYSIIFVVGIFGNSLVVIVIYFYMKLKTVASVFLLNLALADLCFLLTLPLWAVYTAMEYRWPFGNYLCKIASASVSFNLYASVFLLTCLSIDRYLAIVHPMKSRLRRTMLVAKVTCIIIWLLAGLASLPAIIHANVFFIENTNITVCAFHYESQNSTLPIGLGLTKNILGFLFPFLIILTSYTLIWKALKKAYEIQKNKPRNDDIFKIIMAIVLFFFFSWIPHQIFTFLDVLIQLGIIRDCRIADIVDTAMPITICIAYFNNCLNPLFYGFLGKKFKRYFLQLLKYIPPKAKSHSNLSTKMSTLSYRPSDNVSSSTKKPAPCFEVE
- response [1, 4]: 0.628 Δ net BRET
- response [1, 5]: 0.629 Δ net BRET
- response [2, 5]: 0.626 Δ net BRET
- response [2, 6]: 0.622 Δ net BRET

B4: AT1-YFP (wild type), P30556 C289S (protein)
chain: B2 chain with A167R, C289S
- response [3, 6]: 0.623 Δ net BRET
- response [3, 7]: 0.623 Δ net BRET
- response [2, 4]: 0.69 Δ net BRET
- response [2, 7]: 0.624 Δ net BRET

B5: AT1-YFP (wild type), P30556 R167K (protein)
chain: B2 chain with A167K
- response [1, 4]: 0.621 Δ net BRET
- response [1, 5]: 0.618 Δ net BRET
- response [2, 5]: 0.619 Δ net BRET
- response [2, 6]: 0.618 Δ net BRET

More lines, now with the values ahead:

- response [1, 4]: 0.657 Δ net BRET
- response [1, 5]: 0.621 Δ net BRET
- response [2, 5]: 0.621 Δ net BRET
- response [2, 6]: 0.62 Δ net BRET
B1: AT1-YFP (wild type), P30556 R167N (protein)
chain: B2 chain with A167N

- response (% specific binding) ([125I]-Angiotensin II; competing Hcy at log [Hcy] (M) = -2, parent: est. 34): 34
- response (% specific binding) ([125I]-Angiotensin II; competing Hcy at log [Hcy] (M) = -4, parent: est. 45): 66
- response (% specific binding) ([125I]-Angiotensin II; competing Hcy at log [Hcy] (M) = -6, parent: est. 98): 100
B3: human angiotensin II type 1 (AT1) receptor, P30556 R167A (protein)
chain: B2 chain

- response (% specific binding) ([125I]-Angiotensin II; competing Hcy at log [Hcy] (M) = -2, parent: est. 33): 31
- response (% specific binding) ([125I]-Angiotensin II; competing Hcy at log [Hcy] (M) = -4, parent: est. 46): 76
- response (% specific binding) ([125I]-Angiotensin II; competing Hcy at log [Hcy] (M) = -6, parent: est. 97): 100
B6: human angiotensin II type 1 (AT1) receptor, P30556 C289S (protein)
chain: B2 chain with A167R, C289S
